Values quoted from earlier work in publication PMC3869910.

Target: alpha-bungarotoxin (Bungarus multicinctus) (UniProt P60615)
Sequence of UniProt P60615 (P60615 22-95): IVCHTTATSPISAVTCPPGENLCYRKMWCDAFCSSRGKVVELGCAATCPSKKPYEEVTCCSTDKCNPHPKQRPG

Q: For “nicotinic acetylcholine receptor alpha1 (y-α1-ECD) ECD (from UniProt P02708)”, which Kd is on record?
A: The Kd was 5 nM.
